This is an account of results in PMC7195466, “A common allosteric mechanism regulates homeostatic inactivation of auxin and gibberellin” (Nature Communications, 2020).

In data set [1] the target is Oryza sativa dioxygenase for auxin oxidation (OsDAO) (rice (Oryza sativa)) (UniProt Q7XKU5).
Substrate in data set [2]: C=C1C[C@]23C[C@H]1CC[C@H]2[C@@]12CC[C@H](O)[C@@](C)(C(=O)O1)[C@H]2[C@@H]3C(=O)O
In words: GC-SIM-MS of GA34. Format: biochemical, Oryza sativa. The following applies: multimer forms measured separately (monomer, dimer, tetramer); same. The source says:
GC-SIM-MS of GA34 on OsGA2ox3 (GA 2-oxidase 3) | The […]/[…]-tetramer affected both the Km and the Vmax values

Substrate in data set [3]: C=C1C[C@]23C[C@H]1CC[C@H]2[C@@]12CC[C@H](O)[C@@](C)(C(=O)O1)[C@H]2[C@@H]3C(=O)O
The data set is described as follows: GC-SIM-MS of GA34. The following applies: multimer forms measured separately; Methods print Cys187 instead of C186; same. It is filed as biochemical, Oryza sativa. The source says:
GC-SIM-MS of GA34 on OsGA2ox3 (GA 2-oxidase 3) | whereas the […]/[…] monomer affected only the Km

B1: Oryza sativa dioxygenase for auxin oxidation (OsDAO) (enzyme)
chain: MVEIPAIDLRLAGGGGGAEETARLRDACARLGCFRVSGHGVPPGLQAEMKAAVRALFDLPDDAKRRNADIIPGSGYVPPGTANPLYEAFGLCDAAAPADVDAFCARLDAPPHVRETVKAYAERMHSLIVDVAGKVAASLGLHGASFQDWPCQFRMNRYNYTQDSVGSPGVQVHTDSGFLTVLQEDECVGGLEVLDPAAGEFVPVDPLPGSFVVNVGDVGQAWSNGRLHNVKHRVQCVAAVPRVSIAMFLLAPKDDTVSAPGELVDGEHPRRYREFKYDDYRRLRLSTGERAGEALARLAA
As to B1, the Vmax of the dimer against the monomer (forms separated by gel filtration) in data set [1] amounted to 22 fold.

B2: OsGA2ox3 (GA 2-oxidase 3) (Oryza sativa Japonica Group; F100A/R97A) (protein)
chain: MVVLAGPPAVDHIPLLRSPDPGDVFSGVPVVDLGSPGAARAVVDACERYGFFKVVNHGVATDTMDKAESEAVRFFSQTQPDKDRSGPAYPFGYGSKAIGANGDMGWLEYLLLALDDASLADACTVPSCAVFRAALNEYISGVRKVAVRVMEAMSEGLGIAQADALSALVTAEGSDQVFRVNHYPPCRALQGLGCSVTGFGEHTDPQLVSVLRSNGTSGLQIALRDGQWVSVPSDRDSFFVNVGDSLQVLTNGRFKSVKHRVVANSLKSRVSFIYFGGPPLAQRIAPLPQLLGEGEQSLYKEFTWDEYKKAAYKSRLGDNRLAQFEKK
notes: full-length coding region in pGEX6P1, GST tag cut off with PreScission protease, E. coli Rosetta (DE3) pLysS; monomer, homotetramer with GA4
As for B2, the Km in “GC-SIM-MS of GA34 [2]” is on record as 0.52 ± 0.10 (tetramer) μM.

B3: OsGA2ox3 (GA 2-oxidase 3) (Oryza sativa Japonica Group; C186A/W106A) (protein)
chain: MVVLAGPPAVDHIPLLRSPDPGDVFSGVPVVDLGSPGAARAVVDACERYGFFKVVNHGVATDTMDKAESEAVRFFSQTQPDKDRSGPAYPFGYGSKRIGFNGDMGALEYLLLALDDASLADACTVPSCAVFRAALNEYISGVRKVAVRVMEAMSEGLGIAQADALSALVTAEGSDQVFRVNHYPPARALQGLGCSVTGFGEHTDPQLVSVLRSNGTSGLQIALRDGQWVSVPSDRDSFFVNVGDSLQVLTNGRFKSVKHRVVANSLKSRVSFIYFGGPPLAQRIAPLPQLLGEGEQSLYKEFTWDEYKKAAYKSRLGDNRLAQFEKK
notes: as for B2
Consider B3, for which the Km in the data set “GC-SIM-MS of GA34 [3]” is reported as 5.41 ± 0.96 (monomer) μM.
